According to publication PMC5924885 (Proceedings of the National Academy of Sciences of the …, 2018):

Molecular target: Akt1 kinase domain (Akt1^KD) (human, UniProt P31749 144-472, exclusively monophosphorylated, predominantly in the turn motif (T450))
Assay: fluorescence polarisation

Akt1 kinase domain (Akt1^KD), sequence (P31749 144-472): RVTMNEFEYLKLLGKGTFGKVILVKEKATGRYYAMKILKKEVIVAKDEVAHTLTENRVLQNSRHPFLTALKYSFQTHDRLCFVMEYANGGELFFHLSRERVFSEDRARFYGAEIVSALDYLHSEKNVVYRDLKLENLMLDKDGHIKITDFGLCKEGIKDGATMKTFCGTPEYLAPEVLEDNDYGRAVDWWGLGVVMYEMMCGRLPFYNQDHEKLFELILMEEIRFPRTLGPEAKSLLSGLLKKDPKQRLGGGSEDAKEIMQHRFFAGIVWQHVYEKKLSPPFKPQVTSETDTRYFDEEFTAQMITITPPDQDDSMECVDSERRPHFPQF

Kd: 7 µM
B1: Atto488-labeled Akt1 PH domain (Akt1^1-120 T101C) (domain or fragment, human, UniProt P31749 1-120, looked up)
chain: MSDVAIVKEGWLHKRGEYIKTWRPRYFLLKNDGTFIGYKERPQDVDQREAPLNNFSVAQCQLMKTERPRPNTFIIRCLQWTTVIERTFHVETPEEREEWTCAIQTVADGLKKQEEEEMDF
modifications: Atto488 (maleimide) label, about 50% labeling efficiency
